Source: patent US20230288399A1 (FNCT BIOTECH, published 2023)
Positions count from the first letter of the chain named. Numbers in names are those of the source.

What was measured:
SRC [1] = target: T1, SRC (UniProt P12931 2-536); test: co-immunoprecipitation in SW-480 and HCT-116 colorectal cancer cells
T1 construct: Endogenous protein in colorectal cancer cell lysates or cells; also called p-SRC (phosphorylated form)
Description: As a result of performing immunoprecipitation to confirm the expression correlation between ICAM-1 and SRC in SW-480 and HCT-116 colorectal cancer cells, it was confirmed that ICAM-1 binds to SRC endogenously, as shown in FIG. 3D.

SRC [2] = target: T1, SRC; test: immunoprecipitation with ICAM-1 Tyr512 mutants
Procedure: Furthermore, in order to confirm that ICAM-1 binds to SRC by a specific residue, an immunoprecipitation reaction was performed using a mutant with phosphomimetics form that inhibits (Y512A) or activates (Y512D) the Tyr512 phosphorylation residue of ICAM-1.

B1: intracellular adhesion molecule 1 (ICAM-1) (receptor)
chain: QTSVSPSKVILPRGGSVLVTCSTSCDQPKLLGIETPLPKKELLLPGNNRKVYELSNVQEDSQPMCYSNCPDGQSTAKTFLTVYWTPERVELAPLPSWQPVGKNLTLRCQVEGGAPRANLTVVLLRGEKELKREPAVGEPAEVTTTVLVRRDHHGANFSCRTELDLRPQGLELFENTSAPYQLQTFVLPATPPQLVSPRVLEVDTQGTVVCSLDGLFPVSEAQVHLALGDQRLNPTVTYGNDSFSAKASVSVTAEDEGTQRLTCAVILGNQSQETLQTVTIYSFPAPNVILTKPEVSEGTEVTVKCEAHPRAKVTLNGVPAQPLGPRAQLLLKATPEDNGRSFSCSATLEVAGQLIHKNQTRELRVLYGPRLDERDCPGNWTWPENSQQTPMCQAWGNPLPELKCLKDGTFPLPIGESVTVTRDLEGTYLCRARSTQGEVTRKVTVNVLSPRYEIVIITVVAAAVIMGTAGLSTYLYNRQRKIKKYRLQQAQKGTPMKPNTQATPP
notes: The assay used the endogenous protein of SW-480 and HCT-116 cells
binding result (SRC [1]): binds

B2: ICAM-1 Y512D mutant (receptor)
chain: B1 chain with Y485D
binding result (SRC [2]): binds
